# Like-named read-outs stand apart in the source and are kept apart here.
# How the values were obtained:
# [1] = read-out: DHAP → GAP KM; cited from earlier work
# [2] = read-out: KM (μM), second group; cited from earlier work
# [3] = biological target: NovoTim1.0; assay type: biochemical
# [4] = biological target: wild-type TIM (Homo sapiens, UniProt P60174); conditions: cited from earlier work
# [5] = assay type: physicochemical; conditions: pH 7
# [6] = read-out: affinities of wild-type receptors for cognate ligands; cited from earlier work
# [7] = assay type: binding; conditions: read-out: K1 (μM) L-lac
# [8] = assay type: binding; conditions: read-out: K1 (μM) D-lac
# [9] = assay type: binding; conditions: read-out: K1 (μM) Pyr
# wild-type TIM, sequence (P60174 whole entry): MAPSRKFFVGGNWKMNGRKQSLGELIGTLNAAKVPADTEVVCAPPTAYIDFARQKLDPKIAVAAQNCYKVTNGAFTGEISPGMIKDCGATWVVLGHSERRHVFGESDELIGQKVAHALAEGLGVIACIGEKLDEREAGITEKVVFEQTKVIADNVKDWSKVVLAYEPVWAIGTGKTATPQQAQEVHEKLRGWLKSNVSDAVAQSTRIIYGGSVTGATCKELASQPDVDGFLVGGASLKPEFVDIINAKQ
Molecule,Tm [5] [°C],Kd [7] [µM],Kd [8] [µM],Kd [9] [µM],also measured
triose phosphate isomerase [wtTIM],,,,,Km [1]: 1600 µM; Km [2]: 390 µM
O=C(O)COP(=O)(O)O [phosphoglycolate],,,,,Ki [3]: 130 µM; Ki [4]: 4 µM
ribose-binding protein (protein) KDTIALVVSTLNNPFFVSLKDGAQKEADKLGYNLVVLDSQNNPAKELANVQDLTVRGTKILLINPTDSDAVGNAVKMANQANIPVITLDRQATKGEVVSHIASDNVLGGKIAGDYIAKKAGEGAKVIELQGIAGTSAARERGEGFQQAVAAHKFNVLASQPADFDRIKGLNVMQNLLTAHPDVQAVFAQNDEMALGALRALQTAGKSDVMVVGFDGTPDGEKAVNDGKLAATIAQLPDQIGAKGVETADKVLKGEKVQAKYPVDLKLVVKQ,58,,,,Kd [6]: 0.2 µM
"arabinose-binding protein (protein, UniProt P02924 24-329, looked up) L-arabinose-binding …: ENLKLGFLVKQPEEPWFQTEWKFADKAGKDLGFEVIKIAVPDGEKTLNAIDSLAASGAKGFVICTPDPKLGSAIVAKARGYDMKVIAVDDQFVNAKGKPMDTVPLVMMAATKIGERQGQELYKEMQKRGWDVKESAVMAITANELDTARRRTTGSMDALKAAGFPEKQIYQVPTKSNDIPGAFDAANSMLVQHPEVKHWLIVGMNDSTVLGGVRATEGQGFKAADIIGIGINGVDAVSELSKAQATGFYGSLLPSPDVHGYKSSEMLYNWVAKDVEPPKFTEVTDVVLITRDNFKEELEKKGLGGK",54,,,,
"histidine-binding protein (protein, UniProt P0AEU0 23-260, looked up) Histidine-binding periplasmic …: AIPQNIRIGTDPTYAPFESKNSQGELVGFDIDLAKELCKRINTQCTFVENPLDALIPSLKAKKIDAIMSSLSITEKRQQEIAFTDKLYAADSRLVVAKNSDIQPTVESLKGKRVGVLQGTTQETFGNEHWAPKGIEIVSYQGQDNIYSDLTAGRIDAAFQDEVAASEGFLKQPVGKDYKFGGPSVKDEKLFGVGTGMGLRKEDNELREALNKAFAEMRADGTYEKLAKKYFDFDVYGG",58,,,,
Lac.R1: RBP variant designed to bind L-lactate (protein) KDTIALVVSTLNVPARVSLKDGAQKEADKLGYNLVVLDSQNNPAKELANVQDLTVRGTKILLINPTDSDAVGNAVKMANQANIPVITLSSQATKGEVVSHIASDNVLGGKIAGDYIAKKAGEGAKVIELQGIAGTSKAREMGEGFQQAVAAHKFNVLASQPADKDRIKGLNVMQNLLTAHPDVQAVFAQIDEMALGALRALQTAGKSDVMVVGFSGTPDGEKAVNDGKLAATIATLPDQIGAKGVETADKVLKGEKVQAKYPVDLKLVVKQ,,7.4,40,40,
Lac.G2: GBP variant designed to bind L-lactate (protein) ADTRIGVTIKKYDMNKMSVVRKAIEQDAKAAPDVQLLMNDSQNDQSKQNDQIDVLLAKGVKALAINLVDPAAAGTVIEKARGQNVPVVFFKLEPSRKALDSYDKAYYVGTDSKESGIIQGDLIAKHWAANQGWDLNKDGQIQFVLLKGEPGKPKAEAMTTYVIKELNDKGIKTEQLQLDTAMKDTAQAKDKMDAWLSGPNANKIEVVIANNDAMAMGAVEALKAHNKSSIPVFGVAALPEALALVKSGALAGTVLSDANNQAKATFDLAKNLADGKGAADGTNWKIDNKVVRVPYVGVDKDNLAEFSKK,50,2.1,55,115,
Lac.G1 (protein) ADTRIGVTIKKYDKNFMSVVRKAIEQDAKAAPDVQLLMNDSQNDQSKQNDQIDVLLAKGVKALAINLVDPAAAGTVIEKARGQNVPVVFFKLEPSRKALDSYDKAYYVGTDSKESGIIQGDLIAKHWAANQGWDLNKDGQIQFVLLKGEPGMPHAEAKTTYVIKELNDKGIKTEQLQLDTAMKDTAQAKDKMDAWLSGPNANKIEVVIANNDAMAMGAVEALKAHNKSSIPVFGVAALPEALALVKSGALAGTVLDDANNQAKATFDLAKNLADGKGAADGTNWKIDNKVVRVPYVGVDKDNLAEFSKK,,2.8,205,255,
"glutamine-binding protein (protein, UniProt P0AEQ3 23-248, looked up) Glutamine-binding periplasmic …: ADKKLVVATDTAFVPFEFKQGDKYVGFDVDLWAAIAKELKLDYELKPMDFSGIIPALQTKNVDLALAGITITDERKKAIDFSDGYYKSGLLVMVKANNNDVKSVKDLDGKVVAVKSGTGSVDYAKANIKTKDLRQFPNIDNAYMELGTNRADAVLHDTPNILYFIKTAGNGQFKAVGDSLEAQQYGIAFPKGSDELRDKVNGALKTLRENGTYNEIYKKWFGTEPK",62,,,,
